Measured values from the supplement of paper PMC9170038.

System: MS2 coat protein
Assay: apparent KD of MS2 coat protein; designed switch direction (-1 OFF switch, 1 ON switch): 1; higher = weaker reporter binding
Method in brief: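 For each design, the apparent KD is the median over clusters of curves fitted to normalised cluster fluorescence. Clusters held RNA switches with common flanks, transcribed on Illumina chips by stalled E. coli RNA polymerase. These were titrated with SNAP-549-labelled MS2 coat protein, doubling from 0.7 or 1.5 nM to 3 µM, without input, with 200 uM small-molecule ligand, or with an oligonucleotide input.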

[1] = Eterna round: R95, input ligand: FMN 200 uM
[2] = Eterna round: R95, input ligand: microRNA oligo, concentration not stated
[3] = Eterna round: R95, input ligand: none
[4] = input ligand: microRNA oligo, concentration not stated

Row | Sequence | apparent KD of MS2 coat protein [1] [nM] | apparent KD of MS2 coat protein [2] [nM] | apparent KD of MS2 coat protein [3] [nM] | apparent KD of MS2 coat protein [4] [nM] | apparent KD of MS2 coat protein (input ligand: FMN 200 uM) [nM] | apparent KD of MS2 coat protein (input ligand: none) [nM]
1 | AGUCCAGCCUGAGCUGGACAAAAGCAUGUACAUGAGGAUCACCCAUGUUCAUGUACAAGCUUUUUGCUCGUCAUAAA [Mat - hsa-mir-208a - Mod of JL - 51] (puzzle: Sensor for hsa-mir-208a) | 402 | 14.9 | 474 |  |  | 
2 | AUAUCCUUUUUAUACAUGAGGAUCACCCAUGUUUUUCUUACGUAGGAUAUCGUUGUUUUUUUUUACGAGAAGGACGUAGAAUGU [JR_SSND3_Sub063] (Eterna round: R96, puzzle: Same State NG 3) |  |  |  | 23.5 |  | 
3 | GCUCGAUGAUAGGCCUACAUGAGGAUCACCCAUGUAACUGGGCAGGAUAUCUAAAUGCAGAAUGUAGAGAAGGGCCCGUCGAGC [SameState NG3 #53] (Eterna round: R96, puzzle: Same State NG 3) |  |  |  | 86.8 | 220 | 230
4 | AGUAGUUUAACAUGAGGAUCACCCAUGUAUCUAUCUGUAACCUAGGAUAUGGAGGUUUUAUUUAACCAGAAGGAGGAUUGUUUA [JR_SSNG3_Sub044] (Eterna round: R96, puzzle: Same State NG 3) |  |  |  | 17.6 | 19.8 | 24.2
5 | ACGCGGGUAUCACAGGAUAUACUCAUAACUACAUGAGGAUCACCCAUGUGGCGGAAUUCCGGUGCGUAGAAGGGUGAUGGACCGC [Artece] (puzzle: Same State 2) | 19.3 | 28.5 | 26.9 |  |  | 
6 | GGUCGGACUCACAUGAGGAUCACCCAUGUUGCGGAAACGCCACAGGAUAUCUGUCCGAAAAGGUCAGAGAAGGGUGAACCGACC [Fiskers NG3ss - 63] (Eterna round: R96, puzzle: Same State NG 3) |  |  |  | 35.8 | 1460 | 214
7 | AUUAAACAUGAGGAUCACCCAUGUCAACAAAGUCGAGGAUAUGGGCAAAUAAUAUAAGAACCAGAAGGCGAAUAAU [salish99_ss1_r3_058] (puzzle: Same State 1) | 32.1 | 440 | 275 |  |  | 
8 | CUGAAAUGUCAAGGAUAUCACGUCGAUUAGACGUGAGAAGGUGAUCUGCACAUGAGGAUCACCCAUGUGUUACAUGGAAAUCAG [Brourd's SSNG1/1-A2 mod 14] (Eterna round: R96, puzzle: Same State NG 1) |  |  |  | 581 | 312 | 964
9 | AUAGUUUCCGAAGGAUAUGAUGAGGAUCACCCAUCAGAAGGUUGGCUAUUGGGCGGACAUGAGGAUCACCCAUGUCUUUCUGUU (Eterna round: R96, puzzle: Same State NG 1) |  |  |  | 10.7 | 12.7 | 18
10 | AGGCUCAGACGAGGAUAUAUGUGGUCACAUGAGGAUCACCCAUGUCUCGAGCUUCGGCUCGAGGCAUAGAAGGCGUCUGAGCCA [SSNG2/5-A1] (Eterna round: R96, puzzle: Same State NG 2) |  |  |  | 16.4 | 662 | 184
11 | AUUGCUAGCACAGGAUAUCAUGCGAAAAUUGCGUGAGAAGGGUGGACUCUGUCAUUCACGGAGGACAUGAGGAUCACCCAUGUC [SameState NG1 #80] (Eterna round: R96, puzzle: Same State NG 1) |  |  |  | 31.9 | 193 | 62.3
12 | AGUCCAGCCUGAGCUGGACAAAAGCAUGUACAUGAGGAUCACCCAUGUUCAUGUACAAGCUUUUUGCUCGUCUUAAC [salish99_208a_r3_029] (puzzle: Sensor for hsa-mir-208a) | 553 | 16.8 | 636 |  |  | 
13 | GAGGGAUGAGCGUAGGAUAUAGGAGGAGUGACAUGAGGAUCACCCAUGUGGUAUGAGGGAGGAUUCUAGAAGGACGCGGUAGAAG [JR_SS2_Sub064] (puzzle: Same State 2) | 66.4 | 172 | 235 |  |  | 
14 | CUCAACAACACAGGAUAUCCAGGUAAAAGACCUGGAGAAGGGUGACCAACAUGAGGAUCACCCAUGUGACAGCCAGGCUGUCUG [Isbitiqu] (Eterna round: R96, puzzle: Same State NG 1) |  |  |  | 4.41 | 87.8 | 371
15 | UUAAUUUACUGAGGAUAUCGUGUCGACUGAGUUGACAUGAGGAUCACCCAUGUGAGAAGUGGUAUCGAGAAGGCAGUUUUCUUA [JR_SSNG2_Sub025] (Eterna round: R96, puzzle: Same State NG 2) |  |  |  | 82 | 17.8 | 102
16 | ACCCAAAAUACAUGGGAACAAGCUUUUUAACAUGAGGAUCACCCAUGUACUCGUCUUAUAAGCAGUCGAAAGACUGC [hsa-mir-208a sensor: 113] (Eterna round: R96, puzzle: Sensor for hsa-mir-208a) |  |  |  | 14.6 | 563 | 518

Row | Sequence | apparent KD of MS2 coat protein [1] [nM] | apparent KD of MS2 coat protein [2] [nM] | apparent KD of MS2 coat protein [3] [nM] | apparent KD of MS2 coat protein [4] [nM] | apparent KD of MS2 coat protein (input ligand: FMN 200 uM) [nM] | apparent KD of MS2 coat protein (input ligand: none) [nM]
17 | UGUUGUAUUACAGGAUAUCUAUUAUUUUUAUUUAGAGAAGGGUAUUCACAUGAGGAUCACCCAUGUAUAUACGAGGAAGUUGUG [JMF's solution 6] (Eterna round: R96, puzzle: Same State NG 1) |  |  |  | 42.7 |  | 
18 | UGGUACAUGGGAGGAUAUGGAGUUGAGACAUGAGGAUCACCCAUGUUAUAAAAGCCGAGAGGCAACUAGAAGGCCCAUGUACCU [JL SSNG1 3.92] (Eterna round: R96, puzzle: Same State NG 2) |  |  |  | 49.9 | 10.2 | 62.9
19 | GUUACAUGAGGAUCACCCAUGUAUGUGUGGGAGUAAGUGUCUUAGGAUAUCUGGUAUUUAAUUUAAGAGAAGGAAGAUUGUUGU [JMF's solution 30] (Eterna round: R96, puzzle: Same State NG 3) |  |  |  | 63.7 | 91.9 | 77.3
20 | ACAUGAAAUACAGGAUAUUUUGUACCUACAUGUGACAUGAGGAUCACCCAUGUGGUAAGUAUAAGAGAGAAGGGUAAGAUAUGU [Equivalence 4 - Jieux - Same State NG 2] (Eterna round: R96, puzzle: Same State NG 2) |  |  |  | 43.8 | 50.1 | 66.4
21 | AAAGAAGAAAGACAGGAUAUGGAUGGGUAAACAUGAGGAUCACCCAUGUAUAAGAAAGAAAGAAACCAGAAGGGUCAAAAGAAAA [Darius III] (Eterna round: R96, puzzle: Same State 2) |  |  |  | 217 | 68.7 | 253
22 | GCGAGCGUACUUGCUACAUGAGGAUCACCCAUGUUUAUUGGACAGGAUAUGGUACCGUUUCGGUACCAGAAGGGUUCAUCAUGU [JL SSNG3 3.70] (Eterna round: R96, puzzle: Same State NG 3) |  |  |  | 471 | 294 | 547
23 | AGCUAUUAAUCAGGAUAUAGUGACAUGAGGAUCACCCAUGUAUUGAUGAUUAAAUGUGGUCACCGCUAGAAGGGAUUACUAACA [SameState NG2 #47] (Eterna round: R96, puzzle: Same State NG 2) |  |  |  | 23.3 | 25.6 | 30.1
24 | ACCCGCGGGCCACAUGAGGAUCACCCAUGUGACCGGUGAUCCAAGGAUAUACGUGUCAUUGACGCGUAGAAGGUGGCCAAAACA [Ersooned] (Eterna round: R96, puzzle: Same State NG 3) |  |  |  | 22.7 | 49.2 | 28.8
25 | UGGCUCAGACGAGGAUAUGAUCAUGGCGCUUCGGCGCAUACAUGAGGAUCACCCAUGUAAAGUGAUCAGAAGGCGUCUGAGCCA [SSNG2/7-A2] (Eterna round: R96, puzzle: Same State NG 2) |  |  |  | 11.6 | 13.2 | 17.7
26 | GGAGCCGGCACUGAGGAUAUUCAUAUUAAAACAUGAGGAUCACCCAUGUAGGCCAGAAGGCCUUGGGAGAAGGCGGGUCGGCCCG [Bibimoar - 3] (Eterna round: R96, puzzle: Same State 2) |  |  |  | 222 | 22.1 | 258
27 | GGAUGAUUAAUAGGAUAUUAGUUGUAAAAUGUUUAAGAAGGAUUAAUGAUUUAAACGACCAGUUACAUGAGGAUCACCCAUGUU [JR_SSNG1_Sub093] (Eterna round: R96, puzzle: Same State NG 1) |  |  |  | 20.6 |  | 
28 | AUUACGAGCGUAGGAUAUGGGAAAGGAAGUGUACCAGAAGGACGAAUACAGCGUCCGGACAUGAGGAUCACCCAUGUAGGACGC [PowerStrip SSNG 1.19] (Eterna round: R96, puzzle: Same State NG 1) |  |  |  | 21.8 | 11.5 | 26.1
29 | CUUUUUAAUGCAGGAUAUGAUCAACAUGAGGAUCACCCAUGUGGUGUUGUGAGUAAGGAGAGUGAUCAGAAGGGCAUCUUCUCA [SS-NG2-LRO05] (Eterna round: R96, puzzle: Same State NG 2) |  |  |  | 133 | 301 | 169
30 | GUAACAUGACGAGGAUAUGGAACAUGAGGAUCACCCAUGUAUGUUCCAUAACGCGAAUGACGAAUCCAGAAGGCGUCGUGAAUG [Mat - Same State NG 2 - JL mod - D29] (Eterna round: R96, puzzle: Same State NG 2) |  |  |  | 124 | 41.7 | 220
31 | UUAUCUAUCCGAGGAUAUCCAUAUAAUUUACAUGAGGAUCACCCAUGUUAUUGGGAGUUUUUUUAGGAGAAGGCGGAUGUAGAU [JR_SSNG2_Sub052] (Eterna round: R96, puzzle: Same State NG 2) |  |  |  | 79.2 | 82.5 | 107
